# Laboratory results published in article PMC12442443, “Identifying interactions between TDP‐43's N‐terminal and RNA‐binding domains” (Protein Science : A Publication of the Protein Society, 2024).
# B1: TDP-43(102-260), tandem RNA recognition motifs RRM1 and RRM2 of TAR DNA-binding Protein 43 kilodaltons (domain or fragment, human)
# chain: KTSDLIVLGLPWKTTEQDLKEYFSTFGEVLMVQVKKDLKTGHSKGFGFVRFTEYETQVKVMSQRHMIDGRWCDCKLPNSKQSQDEPLRSRKVFVGRCTEDMTEDELREFFSQYGDVMDVFIPKPFRAFAFVTFADDQIAQSLCGEDLIIKGISVHISNA
# notes: 15N-labelled (M9 medium with 15NH4Cl) in the CPMG NMR; also called RRMs; RRM12; source: E. coli BL21(DE3), purified (His-Trap, Superdex size exclusion)
# Molecular target: the molecule itself
# Experiment: native gel or EMSA; 4-16% Bis-Tris native gel, Coomassie; 8.125 uM RRM alone or with NTD(1-77) at 0.5:1, 1:1 and 2:1 (NTD:RRM); incubated 10 min at 25 C in 300 mM NaCl, 40 mM HEPES pH 6.5, 4 mM DTT; full shift only at 2:1; also repeated with added RNA
protein,measurement,value
B1,stoichiometry N,2
